{"source": "paper PMC5827114", "about": "“A cryptic RNA-binding domain mediates Syncrip recognition and exosomal partitioning of miRNA targets”", "key": {"Syncrip NeR1R2R3 [1]": {"biological_target": "T1, Syncrip NeR1R2R3 (Homo sapiens, UniProt O60506 16-428)", "T1 sequence": "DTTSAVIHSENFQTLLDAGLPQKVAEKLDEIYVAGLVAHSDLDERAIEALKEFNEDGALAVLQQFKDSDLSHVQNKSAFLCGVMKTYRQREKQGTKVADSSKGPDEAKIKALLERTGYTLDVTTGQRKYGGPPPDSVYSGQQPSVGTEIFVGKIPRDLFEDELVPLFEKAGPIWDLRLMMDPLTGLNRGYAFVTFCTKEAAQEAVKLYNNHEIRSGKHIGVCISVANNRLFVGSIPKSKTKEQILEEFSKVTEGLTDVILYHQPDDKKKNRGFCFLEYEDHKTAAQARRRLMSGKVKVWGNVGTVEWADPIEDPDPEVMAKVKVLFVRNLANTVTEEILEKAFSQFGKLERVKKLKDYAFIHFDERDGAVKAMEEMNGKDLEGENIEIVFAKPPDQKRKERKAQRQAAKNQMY", "assay": "BLI; BLI: 5 mM Tris-HCl pH 7.4, 50 mM NaCl, 1 mM TCEP, 0.5 mg/mL BSA, 30 C; NMR: 5 mM Tris-HCl pH 7.4, 50 mM NaCl, 0.5 mM TCEP", "conditions": "protein: recombinant; tags: His6-SUMO or His, removed by HRV 3C; label: 5'-biotin"}, "Syncrip NURR domain (N) [2]": {"biological_target": "T2, Syncrip NURR domain (N) (Homo sapiens, UniProt O60506 16-109)", "T2 sequence": "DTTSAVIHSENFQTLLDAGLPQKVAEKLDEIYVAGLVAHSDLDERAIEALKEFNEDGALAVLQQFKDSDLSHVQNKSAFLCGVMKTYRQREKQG", "assay": "BLI; BLI: 5 mM Tris-HCl pH 7.4, 50 mM NaCl, 1 mM TCEP, 0.5 mg/mL BSA, 30 C; NMR: 5 mM Tris-HCl pH 7.4, 50 mM NaCl, 0.5 mM TCEP", "conditions": "protein: recombinant; tags: His6-SUMO or His, removed by HRV 3C; label: 5'-biotin"}, "Syncrip NeR1R2R3 [3]": {"biological_target": "T1, Syncrip NeR1R2R3", "assay": "BLI; BLI: 5 mM Tris-HCl pH 7.4, 50 mM NaCl, 1 mM TCEP, 0.5 mg/mL BSA, 30 C; NMR: 5 mM Tris-HCl pH 7.4, 50 mM NaCl, 0.5 mM TCEP", "conditions": "protein: recombinant; tags: His6-SUMO or His, removed by HRV 3C; label: 5'-biotin (BLI)"}, "Syncrip NURR domain (N) [4]": {"biological_target": "T2, Syncrip NURR domain (N)", "assay": "NMR; BLI: 5 mM Tris-HCl pH 7.4, 50 mM NaCl, 1 mM TCEP, 0.5 mg/mL BSA, 30 C; NMR: 5 mM Tris-HCl pH 7.4, 50 mM NaCl, 0.5 mM TCEP", "conditions": "protein: recombinant; tags: His6-SUMO or His, removed by HRV 3C"}, "Syncrip NeR1R2R3 [5]": {"biological_target": "T1, Syncrip NeR1R2R3", "assay": "NMR; only NURR resonances shift; BLI: 5 mM Tris-HCl pH 7.4, 50 mM NaCl, 1 mM TCEP, 0.5 mg/mL BSA, 30 C; NMR: 5 mM Tris-HCl pH 7.4, 50 mM NaCl, 0.5 mM TCEP", "conditions": "protein: recombinant; tags: His6-SUMO or His, removed by HRV 3C"}, "Syncrip NeR1 R60A G97L": {"biological_target": "T3, Syncrip NeR1 R60A G97L (Homo sapiens, UniProt O60506 16-242, R60A;G97L)", "T3 sequence": "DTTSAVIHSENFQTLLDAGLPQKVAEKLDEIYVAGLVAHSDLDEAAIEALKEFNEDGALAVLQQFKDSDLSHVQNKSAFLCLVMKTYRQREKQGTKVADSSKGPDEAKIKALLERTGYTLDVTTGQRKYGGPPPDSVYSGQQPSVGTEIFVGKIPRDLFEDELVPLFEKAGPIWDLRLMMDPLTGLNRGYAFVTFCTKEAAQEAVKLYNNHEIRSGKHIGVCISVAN", "assay": "NMR; 50 uM protein, 1:1 and 1:2; legend: binding eliminated (text: impaired); BLI: 5 mM Tris-HCl pH 7.4, 50 mM NaCl, 1 mM TCEP, 0.5 mg/mL BSA, 30 C; NMR: 5 mM Tris-HCl pH 7.4, 50 mM NaCl, 0.5 mM TCEP", "conditions": "protein: recombinant; tags: His6-SUMO or His, removed by HRV 3C"}, "Syncrip NeR1": {"biological_target": "T4, Syncrip NeR1 (Homo sapiens, UniProt O60506 16-242)", "T4 sequence": "T3 sequence with A45R, L82G", "assay": "NMR; 50 uM protein, 1:1 and 1:2; BLI: 5 mM Tris-HCl pH 7.4, 50 mM NaCl, 1 mM TCEP, 0.5 mg/mL BSA, 30 C; NMR: 5 mM Tris-HCl pH 7.4, 50 mM NaCl, 0.5 mM TCEP", "conditions": "protein: recombinant; tags: His6-SUMO or His, removed by HRV 3C"}}, "note": "Numbering of substitutions follows the chain as printed.", "data": [{"binder": "UCACUUUGUAGACCAAGUGUU (ssRNA)", "note": "[chimera miR-3470 (delta-hEXO mutant)]", "values": [{"measurement": "fold loss of affinity vs miR-3470 wild type", "setting": "Syncrip NeR1R2R3 [1]", "value": "~6 fold lower affinity than miR-3470 wild type"}]}, {"binder": "GUAGACCAGGCUGG (ssRNA)", "note": "[14mer miR-3470]", "values": [{"measurement": "Kd", "setting": "Syncrip NURR domain (N) [2]", "value": "29 ± 2", "unit": "µM"}]}, {"binder": "UCACUUUGUAGACCAGGCUGG (ssRNA)", "note": "[miR-3470 full-length]", "values": [{"measurement": "Kd", "setting": "Syncrip NeR1R2R3 [3]", "value": "0.002 ± 0.0002", "unit": "µM"}]}, {"binder": "AGGCU (ssRNA)", "note": "[hEXO-motif RNA]", "values": [{"measurement": "binding result", "setting": "Syncrip NURR domain (N) [4]", "value": "binds"}, {"measurement": "binding result", "setting": "Syncrip NeR1R2R3 [5]", "value": "binds"}, {"measurement": "binding result", "setting": "Syncrip NeR1 R60A G97L", "value": "no binding"}, {"measurement": "binding result", "setting": "Syncrip NeR1", "value": "binds"}]}]}
